From patent US20240002497A1 (Merck Sharp & Dohme, published 2024)
Like-named read-outs stand apart in the source and are kept apart here. Blank lines part the entries; values can stand above or below the binder they belong to.

Columns and labels:
[1] = target: rhNav1.7α + β1-β2-β3 (rhesus monkey); test: cell-based or functional assay
[2] = target: huNav1.7α + β1 (human); test: cell-based or functional assay
[3] = target: T1, huNav1.7α + β1-β2-β3 (human, UniProt Q15858 1-1988; A5A6L6 19-218; O60939 30-215; Q2KI11 23-215); test: competition FACS vs EC25 of 275B05(N93R), CHO FlpIn
T1 construct: also called huNav1.7-beta1-beta2-beta3; huNav1.7-β1-β2-β3

[4] = target: T2, rhNav1.7α + β1-β2-β3 (rhesus monkey); test: as above
T2 construct: also called rhNav1.7-beta1-beta2-beta3; rhNav1.7-β1-β2-β3

[5] = target: T2, rhNav1.7α + β1-β2-β3; test: cell-based or functional assay; remark: listed apart in the source
[6] = target: huNav1.7α + β1 (human); test: cell-based or functional assay; remark: listed apart in the source
[7] = target: T2, rhNav1.7α + β1-β2-β3; test: cell-based or functional assay; remark: listed apart in the source
[8] = target: huNav1.7α + β1 (human); test: cell-based or functional assay; remark: listed apart in the source
[9] = target: T1, huNav1.7α + β1-β2-β3; test: binding FACS, CHO FlpIn
In short: (§1)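 Cells at 1×10^5 per well incubated 30 min at 4 °C with purified FLAG3-tagged ISVD in FACS buffer (PBS, 10% FBS, NaN₃); bound ISVD detected via murine anti-Flag by flow cytometry, dead cells excluded with 1 μg/mL propidium iodide.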

[10] = target: T2, rhNav1.7α + β1-β2-β3; test: binding FACS, CHO FlpIn
In short: as §1

[11] = target: T3, muNav1.7α (murine, UniProt Q62205 1-1984); test: binding FACS, HEK JmpIn
T3 construct: HEK JmpIn cells; also called murine Nav1.7α
In short: as §1

[12] = target: T1, huNav1.7α + β1-β2-β3; test: binding FACS, CHO FlpIn; remark: listed apart in the source
Description: (§2) Binding of the ISVDs to cell-expressed Nav1.7α was detected via murine anti-Flag (Sigma, catalog #F1804). Briefly, cells were resuspended in FACS buffer (PBS, 10% FBS, NaN₃) and transferred to a 96-well V-bottom plate at 1×10^5 cells/well. Purified FLAG3-tagged ISVD was diluted in FACS buffer and added to the cells for 30 minutes at 4° C. […] Prior to the read-out, the samples were resuspended in 1 μg/mL propidium iodide (Sigma, catalog #P4170) to exclude dead cells. Between each step, the cells were centrifuged for 5 minutes at 200 grams and washed with 100 μL/well FACS buffer.

[13] = target: T2, rhNav1.7α + β1-β2-β3; test: binding FACS, CHO FlpIn; remark: listed apart in the source
Description: as §2

[14] = target: T3, muNav1.7α; test: binding FACS, HEK JmpIn; remark: listed apart in the source
[15] = target: T4, rhNav1.7α + β1-β2-β3 (rhesus Nav1.7α co-expressed with Navβ1, Navβ2 and Navβ3 on cells) (rhesus monkey (α subunit); β subunits …); test: cell-based or functional assay
[16] = target: huNav1.7α + β1 on HEK cells (human, UniProt Q15858 1-1988; Q07699 19-218); test: cell-based or functional assay
[17] = target: T5, huNav1.7α + β1-β2-β3 (human Nav1.7α co-expressed with human Navβ1, Navβ2 and Navβ3 on cells) (human); test: binding FACS, CHO FlpIn cells
T5 construct: also called huNav1.7-beta1-beta2-beta3; CHO FlpIn huNav1.7α + β1-β2-β3
In short: as §1

[18] = target: T4, rhNav1.7α + β1-β2-β3 (rhesus Nav1.7α …); test: binding FACS, CHO FlpIn cells
In short: as §1

[19] = target: T5, huNav1.7α + β1-β2-β3 (human Nav1.7α …); test: binding FACS, CHO FlpIn cells; remark: listed apart in the source
Description: as §2

[20] = target: T4, rhNav1.7α + β1-β2-β3 (rhesus Nav1.7α …); test: binding FACS, CHO FlpIn cells; remark: listed apart in the source
Description: as §2

[21] = target: T6, huNav1.7α + β1 (human Nav1.7α co-expressed with Navβ1) (human, UniProt Q15858 1-1988; Q07699 19-218); test: cell-based or functional assay
[22] = target: T7, huNav1.7α (human Nav1.7 alpha subunit, expressed without β subunits) (human, UniProt Q15858 1-1988); test: binding FACS, HEKa cells
T7 construct: also called HEK293 human Nav1.7α; HEKa Nav1.7α

[23] = target: T7, huNav1.7α (human Nav1.7 alpha subunit, …); test: binding FACS, HEKa cells; remark: listed apart in the source
[24] = target: T6, huNav1.7α + β1 (human Nav1.7α …); test: binding FACS, HEKa/β1 cells
[25] = target: T6, huNav1.7α + β1 (human Nav1.7α …); test: binding FACS, HEKa/β1 cells; remark: listed apart in the source
[26] = target: T8, huNav157 chimera 14 + β1-β2-β3 (human); test: binding FACS, HEK FlpIn cells
T8 construct: Chimera of huNav1.7α (extracellular loops and transmembrane helices) and huNav1.5α (intracellular loops); also called Nav157ch14-β1-β2-β3; huNav157 chimera 14-beta1-beta2-beta3

[27] = target: T9, huNav157 chimera 14 (human); test: binding FACS, HEK FlpIn cells
T9 construct: Chimera without β subunits; also called Nav157ch14

[28] = target: T8, huNav157 chimera 14 + β1-β2-β3; test: binding FACS, HEK FlpIn cells; remark: listed apart in the source
[29] = target: T9, huNav157 chimera 14; test: binding FACS, HEK FlpIn cells; remark: listed apart in the source
[30] = target: T7, huNav1.7α (human Nav1.7 alpha subunit, …); test: binding FACS, huNav1.7α without β; minus = lower than reference
[31] = target: T7, huNav1.7α (human Nav1.7 alpha subunit, …); test: binding FACS, huNav1.7α without β; minus = weaker than reference
[32] = target: T10, huNav1.7α + β1-β2-β3 (human Nav1.7α co-expressed with Navβ1, Navβ2 and Navβ3) (human); test: binding FACS; minus = lower activity than reference
T10 construct: also called huNav1.7-beta1-beta2-beta3

[33] = target: T11, muNav1.7α (murine Nav1.7α) (murine, UniProt Q62205 1-1984); test: as above
T11 construct: HEK Jmp-In cells

[34] = target: T12, rhNav1.7α + β1-β2-β3 (rhesus Nav1.7α co-expressed with Navβ1, Navβ2 and Navβ3) (rhesus monkey); test: binding FACS; plus = higher activity than reference
T12 construct: also called rhNav1.7-beta1-beta2-beta3

[35] = target: T11, muNav1.7α (murine Nav1.7α); test: as above

B1: F010301452 (VHH)
VHH: EVQLVESGGGLVQPGGSLRLSCAASGPVFNINSMAWYRRAPGKQRELVAYSTPGWDWNYADSVKGRFTISRDNAKRVYLQMNSLTPEDTAVYYCRWLLQPSIYDISRTYWGQGTLVTVSS
notes: Tagless version of F010300659 by its description; also called F0103275B05(S27P, I28V, S50Y, N53P, G55W, S56D, T57W, N93R, A94W)
QPatch electrophysiology IC50 [M], HEK cells [1]: 1.8e-08 M | QPatch electrophysiology IC50 [M], HEK cells [2]: 2.1e-08 M | IC50 [3]: 30 nM | IC50 [4]: 16 nM

B5: F010301648 (VHH)
VHH: EVQLVESGGGVVQPGGSLRLSCDASGRILRIGYMRWHRQGAGKQREFVARITDDSATDYADSVKGRFTISRDNAKNTVYLQMNSLRPEDTALYYCNALVTASVRGGSIHSGTYWGQGTLVTVSS
notes: also called F0103387G05(L11V, A14P, N82bS, N83R, V89L, E93N, R105Q); E93N
Bmax [22]: 25% | EC50 [22]: 89 nM | EC50 [24]: 3.2 nM | EC50 [26]: 3.4 nM | Bmax [27]: 30% | EC50 [27]: 210 nM | Bmax fold change compared to reference [30]: -4 fold | EC50 fold change compared to reference [31]: -20 fold

B6: F010301877 (VHH)
VHH: EVQLVESGGGVVQPGGSLRLSCATTSRAFIRDVFTGWYRRVPGKERELVARIYNGGNTNYADFAKGRFTISRDNAKNMVYLQMNSLRPEDTALYYCLFSGTINTGREYRSGDYWGQGTLVTVSS
notes: also called F0103464B09(L11V, S68T, K76N, T79Y, R81Q, S82aN, N82bS, K83R, G88A, V89L); K76N
EC50 fold change compared to reference [32]: -2 fold | EC50 fold change compared to reference [33]: -4 fold

Second part, the binder after the results:

IC50 [M], electrophysiology, HEK cells [5]: 3.6e-08 M | IC50 [M], electrophysiology, HEK cells [6]: 1.1e-08 M | Qpatch IC50 [7]: 166 nM | Qpatch IC50 [8]: 7 nM | Bmax [9]: 100% | EC50 [9]: 4.2 nM | Bmax [10]: 96% | EC50 [10]: 9.3 nM | Bmax [11]: 18% | EC50 [11]: 48 nM | EC50 [12]: 4.2 nM | EC50 [13]: 9.3 nM | EC50 [14]: 48 nM
B2: F010302363 (VHH)
VHH: EVQLVESGGGVVQPGGSLRLSCAASHRAFIRDVFTGWYRQAPGKQRELVARIYEGGNTQYADSVKGRFTISRDNAKKTVYLQMNSLRPEDTALYYCLFSGTISTGREYRSGDYWGQGTLVTVSS

IC50 [M], in vitro electrophysiology, HEK rhNav1.7α + β1-β2-β3 [15]: 3e-09 M | IC50 [M], in vitro electrophysiology, HEK huNav1.7α + β1 [16]: 2.2e-08 M | Bmax [17]: 100% | EC50 [17]: 6.8 nM | Bmax [18]: 100% | EC50 [18]: 4.5 nM | EC50 [19]: 6.8 nM | EC50 [20]: 4.5 nM
B3: F010302383 (VHH)
VHH: EVQLVESGGGVVQPGGSLRLSCAASGPVFNINRMAWYRQAPGKQRELVAYVTPTGDISYADSVKGRFTISRGGSKRVYLQMNSLRPEDTALYYCRALLQPSSYSGTRTYWGQGTLVTVSS
notes: also called F0103387G04(L11V, A12V, K33R, R39Q, S50Y, S56D, T60A, D72G, W78V, S79Y, T83R, V89L, N93R, D99S, N100cG) + FLAG3-HIS6

IC50 [M], electrophysiology on HEK huNav1.7α + β1 cells [21]: 3.2e-08 M | Bmax [22]: 100% | EC50 [22]: 1.9 nM | EC50 [23]: 1.9 nM | EC50 [24]: 2 nM | EC50 [25]: 2 nM | EC50 [26]: 2.3 nM | Bmax [27]: 100% | EC50 [27]: 2.7 nM | EC50 [28]: 2.3 nM | EC50 [29]: 2.7 nM
B4: F010302391 (VHH)
VHH: EVQLVESGGGVVQPGGSLRLSCAASGRILRIGYMRWYRQAPGKQREFVARITGGSATGYADSVKGRFTISRDNAKNTVYLQMNSLRPEDTALYYCEALVTASVRGGSIHSGTYWGQGTLVTVSS
notes: also called F0103387G05(L11V, A14P, D23A, H37Y, G40A, A41P, D53G, D54G, D58G, N82bS, N83R, V89L, R105Q)-FLAG3-HIS6

EC50 fold change compared to reference [34]: 3 fold | EC50 fold change compared to reference [35]: 3 fold
B7: F010301893 (VHH)
VHH: EVQLVESGGGVVQPGGSLRLSCATTSRAFIRDVFTGWYRRVPGKQRELVARIYNGGNTNYADFAKGRFTISRDNAKKMVYLQMNSLRPEDTALYYCLFSGTINTGREYRSGDYWGQGTLVTVSS
notes: also called F0103464B09(L11V, E44Q, S68T, T79Y, R81Q, S82aN, N82bS, K83R, G88A, V89L); E44Q
